Assay [1] concerns the target GST-Casp8p41 (UniProt Q14790). In words: SPR, GST-Bcl-2 R146A over immobilized Casp8p41.
Assay [2] deals with GST-Bcl-2 (human) (UniProt P10415). In words: SPR, GST-Casp8p41 Val150Glu/Leu157Lys over immobilized GST-Bcl-2.
The target of assay [3] is GST-Mcl-1 (UniProt Q07820). In words: SPR (Biacore 3000), GST-Mcl-1 binding to GST-Casp8p41, mean of 3 experiments; target Mcl-1.
Assay [4] addresses GST-Bcl-xL (UniProt Q07817). In words: SPR (Biacore 3000), GST-Bcl-xL binding to GST-Casp8p41, mean of 3 experiments; target Bcl-xL.
The target of assay [5] is GST-Bcl-2 (human) (UniProt P10415). The experiment in a line: SPR (Biacore 3000), GST-Bcl-2 injected over immobilized GST-Casp8p41, mean of 3 experiments; target Bcl-2.

The values below come from patent US20240374532A1.

Bounds are passed on as bounds.

Sequence of GST-Bcl-2 (human) (P10415 1-218): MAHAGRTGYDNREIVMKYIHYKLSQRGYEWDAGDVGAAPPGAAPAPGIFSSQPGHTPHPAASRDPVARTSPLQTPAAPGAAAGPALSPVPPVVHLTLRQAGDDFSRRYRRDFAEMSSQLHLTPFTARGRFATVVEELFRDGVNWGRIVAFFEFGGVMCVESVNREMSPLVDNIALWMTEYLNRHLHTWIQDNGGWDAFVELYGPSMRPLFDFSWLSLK
Sequence of GST-Mcl-1 (Q07820 1-327): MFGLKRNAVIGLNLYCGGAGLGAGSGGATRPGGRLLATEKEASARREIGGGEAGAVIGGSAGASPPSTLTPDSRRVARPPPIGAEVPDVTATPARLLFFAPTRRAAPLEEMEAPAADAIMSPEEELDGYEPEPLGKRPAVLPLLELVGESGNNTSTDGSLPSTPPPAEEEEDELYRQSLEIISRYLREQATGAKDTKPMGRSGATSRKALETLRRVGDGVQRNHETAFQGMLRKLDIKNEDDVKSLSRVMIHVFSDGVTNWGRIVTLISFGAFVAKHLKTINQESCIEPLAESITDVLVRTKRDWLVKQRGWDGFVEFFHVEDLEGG
Sequence of GST-Bcl-xL (Q07817 1-212): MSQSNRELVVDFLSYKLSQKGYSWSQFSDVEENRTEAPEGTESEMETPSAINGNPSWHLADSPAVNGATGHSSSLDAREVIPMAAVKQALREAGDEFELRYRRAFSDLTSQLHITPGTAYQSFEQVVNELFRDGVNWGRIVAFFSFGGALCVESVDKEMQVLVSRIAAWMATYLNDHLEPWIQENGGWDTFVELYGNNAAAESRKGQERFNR

In turn, “GST-Bcl-2 R146A (from UniProt P10415 1-218)” registered a fold decrease in affinity against wild-type Bcl-2 in assay [1] of 250 fold.
“GST-Casp8p41 Val150Glu/Leu157Lys (from UniProt Q14790 1-479)” gave a fold decrease in affinity against wild-type Casp8p41 in assay [2] greater than 300 fold.
As to “GST-Casp8p41 (from UniProt Q14790 1-479)”, the Kd in assay [3] was determined as 8 nM; in assay [4], 11 nM; in assay [5], 13 nM.
